Measured values reported in patent publication US20050054014A1.
Starred links: 1 amine or outer side, 2 acyl side, 3 side chain; linkers in the order of their positions; H or OH if unused. Non-standard residues stand in square brackets, D forms with d. No end group written: not given here. βAsp = O=C(O)[C@H](CC(=O)[*:2])N[*:1]

Experiments:
[1] = target: AG1-1 specific monoclonal antibody F49; assay: competitive ELISA, biotin-GRVRVD-β-SAY on streptavidin plates, free peptide as competitor
[2] = target: polyclonal AG1-1 specific rabbit antiserum; assay: competitive ELISA, BSA-BS^3-AG1-1 coated plates, free peptide as competitor

Row | Binder | fold higher reactivity compared with the αL form [1] [fold] | fold higher reactivity compared with the non-boiled form [2] [fold]
1 | GRVRV[βAsp]SAY [AG1-1 peptide, isomerized (βL) form] | > 500 | 
2 | GRVRVNSAY (also: heated mixture: Asn6 partly converted to βL, αD and βD forms) [AG1-1 peptide … heated at 90° C. for 4 hours] |  | 7
